Measurements: patent publication US20150196533A1, “METHOD FOR CONCURRENT TREATMENT OF PAIN AND DEPRESSION” (The General Hospital Corporation, priority 2012, published 2015)
Entries after “also recorded” stand apart in the source; their conditions may differ.

Tested on: IDO1 expression in hippocampal organotypic slice culture
Assay: IL-6 exposure of organotypic hippocampal slice culture: IDO1 expression and activity
Format: cell-based, rat
Conditions: 100 ng/ml for 24 hours
Description: According to a modified method (Stoppini, L., Buchs, P. A., and Muller, D. 1991. A simple method for organotypic cultures of nervous tissue. J Neurosci. Methods 37:173-182.; Fu, X., Zunich, S. M., O'Connor, J. C., Kavelaars, A., Dantzer, R., and Kelley, K. W. 2010. Central administration of lipopolysaccharide induces depressive-like behavior in vivo and activates brain indoleamine 2,3 dioxygenase in murine organotypic hippocampal slice cultures. J Neuroinflammation. 7:43) organotypic hippocampal cultures were prepared using hippocampus slices from 5 to 8-day-old Wistar rats. Rat pups were euthanized by decapitation and brains were rapidly removed and the hippocampus was separated from the brain. Hippocampal slices (350 μm in thickness) were made using a Mcllwain tissue chopper (Campden Instruments Ltd) and placed in the Gey's balanced salt solution (Sigma-Aldrich) with 2 mg/ml D-glucose. Slices were then placed on 30-mm Millicell-CM (Millipore) porous (0.4 μm) membranes. These membranes were transferred into six-well culture plates filled with an incubation medium (1 ml) consisting of 50% vol/vol minimal essential medium, 25% heat-inactivated horse serum and 25% HBSS (Invitrogen), supplemented with 25 mM D-glucose. Plates were incubated in a humidified atmosphere of 5% CO2 and 95% air at 37° C. Culture medium was changed 3 times a week. Slices were treated with 100 ng/ml IL-6 or vehicle and collected 24 hours later for assays (Hakkoum, D., Stoppini, L., and Muller, D. 2007. Interleukin-6 promotes sprouting and functional recovery in lesioned organotypic hippocampal slice cultures. J Neurochem. 100:747-757).
Rats were sacrificed under pentobarbital anesthesia. The hippocampus was separated from the brain and immediately stored on dry ice and kept at −80° C. until use. Samples were homogenized in a lysis buffer with SDS containing a cocktail of proteinase inhibitors (Roche). Samples were separated on an SDS-PAGE gel (4%-15% gradient gel; Bio-Rad) and transferred to polyvinylidene difluoride filter (PVDF) membranes (Millipore). Membranes were blocked with 5% nonfat dried milk for 1 hour at room temperature and incubated over night at 4° C. on a rocker with one of following primary antibody: 1:200 IDO1 (Santa Cruz Biotechnology Inc.; rabbit polyclonal antibody), 1:200 IDO1 (Novius Biologicals; rabbit polyclonal antibody), 1:500 JAK2 (Santa Cruz Biotechnology Inc.; rabbit polyclonal antibody), 1:1,000 STAT3 (Millipore; rabbit polyclonal antibody), 1:5,000 p-STAT3 (Abcam; rabbit monoclonal antibody). After membranes were washed with PBS×4, membranes were incubated with 1:8,000 HRP conjugated secondary antibody (Amersham, Biosciences) for 1 hour at room temperature on a rocker. The membranes were washed with PBS×4 and blots were visualized in enhanced Chemiluminescent (ECL) solution (Pierce) for 5 minutes and exposed to hyperfilms (Kodak) for 15 minutes. Blots were again incubated in a Stripping buffer (Pierce) for 15 minutes at room temperature on a rocker and reprobed with 1:12,000 anti-β-actin antibody (Abeam Inc.) as a loading control. Western blots were made in triplicates. Band density was measured and normalized against a loading control band.
Total RNA was isolated from hippocampal samples using TRIzol reagent (Invitrogen). […] Taqman Gene Expression Assays (Applied Biosystems) containing primers and a Taqman probe were used to quantify each gene of interest. […]

B1: IL-6: exogenous IL-6 (recombinant rat IL-6), proinflammatory cytokine (protein, UniProt P20607 25-211, looked up)
Interleukin-6: FPTSQVRRGDFTEDTTHNRPVYTTSQVGGLITYVLREILEMRKELCNGNSDCMNSDDALSENNLKLPEIQRNDGCFQTGYNQEICLLKICSGLLEFRFYLEFVKNNLQDNKKDKARVIQSNTETLVHIFKQEIKDSYKIVLPTPTSNALLMEKLESQKEWLRTKTIQLILKALEEFLKVTMRSTRQT
- IDO1 immunoreactivity (FIG. 8F): increased IDO1 immunoreactivity; also recorded: increased the expression of IDO1
- IDO1 mRNA expression (real-time PCR; FIG. 8G) (P<0.05): up-regulated; also recorded: increased the expression of IDO1
- IDO1 protein expression (Western blot; FIG. 8H) (P<0.05): up-regulated; also recorded: increased the expression of IDO1
- kynurenine/tryptophan ratio in the culture medium (HPLC; FIG. 8I) (P<0.05): significantly increased; also recorded: increased KYN/TRP ratio
- serotonin/tryptophan ratio in the culture medium (HPLC; FIG. 8I) (P<0.05): decreased 5-HT/TRP ratio
